# Measured values as given in article PMC3074123.
# Columns and labels:
# EndA(H160G/R209A/K210A) = EndA(H160G/R209A/K210A) (Streptococcus pneumoniae, UniProt P0A3S3 31-274, H160G;R209A;K210A); assay: EMSA
# EndA(H160G/R127A/K128A) = EndA(H160G/R127A/K128A) (Streptococcus pneumoniae, UniProt P0A3S3 31-274, H160G;R127A;K128A); assay: EMSA
binder,measurement,setting,value
24 bp duplex (dsDNA) DNA 1: GCAAGGTGCGTGCAGCCTTGGACC DNA 2: GGTCCAAGGCTGCACGCACCTTGC,binding result,EndA(H160G/R209A/K210A),no binding
same,binding result,EndA(H160G/R127A/K128A),no binding
